Patent US10280197B2, “Discovery of the first selective C5A receptor 2 (C5L2/C5AR2) ligands” (The Regents of the University of California, priority 2015, dated 2019)
Blank lines part the entries; values can stand above or below the molecule they belong to.

Tests used:
[1] = Estimated blood concentration after i.v. dose; format: in vivo; conditions: C57BL/6J, whole blood, intravenous; 3 mg/kg, assuming a blood volume of 2 mL for a 25 g mouse
Procedure: To further explore the selectivity of the ligands P32 was tested in a mouse model of C5a-induced neutrophil mobilization (FIG. 6). […] Assuming a mouse blood volume of 2 mL for a 25 g mouse, a concentration of 3 mg/kg would result in Cmax blood concentrations of ˜50 uM, a dose within the active range of this compound from our in vitro studies

[2] = target: T1, human C5a2 (Flp-In CHO-C5a2 membranes) (Homo sapiens, UniProt Q9P296); assay: C5a2 receptor binding, scintillation proximity assay (125I-C5a displacement); conditions: concentrations up to 1 μM
T1 construct: expressed in transfected cells
Procedure: Membranes were prepared from Flp-In CHO-05a2 cells by a previously described method^46. Briefly, cells were washed with PBS, pH 7.4, and harvested into buffer (50 mM Tris-HCl, pH 7.4, 5 mM MgCl2, 1 mM CaCl2) before homogenizing with a Polytron homogenizer for 3 min on setting 22. Cells were centrifuged at 150×g for 5 min at 4° C. The supernatant was recovered and centrifuged at 22 000×g for 1 h at 4° C. Membrane pellets were then resuspended in 0.4 mL of ice-cold buffer (50 mM Tris-HCl, pH 7.4, 5 mM MgCl2, 1 mM CaCl2, containing 10% glycerol) with aliquots stored at −80° C. The protein concentration of the membrane preparation was determined by Bradford method^47.
C5a2 receptor binding studies were performed using a modification of a previously described scintillation proximity assay (SPA) method^48. Briefly, C5a2 SPA studies were performed in 96-well white isoplates with clear flat bottoms (Perkin Elmer, Waltham, Mass., USA). SPA beads (200 μg/well) were added, following the addition of various concentrations of competing ligands or buffer (6 pM to 500 μM) in a total volume of 80 μL of assay buffer (50 mM Tris-HCl, pH 7.4, 0.5% BSA, 5 mM MgCl2, 1 mM CaCl2). ^125I-C5a (˜20 pM) (specific activity, 2200 Ci mmol^−1) (Perkin Elmer) was added to C5a2 membrane preparations (˜2 μg/well). The final reaction volume per well comprised 20 μL of ligand/buffer, 20 μL of SPA beads, 20 μl of membrane and the assay was initiated by the addition of 20 μL of ^125I-C5a. The plate was then sealed using TopSeal-A (Perkin Elmer) sealing film and incubated with shaking for 1 h at room temperature. Radioligand binding was then assessed for 30 s/well using a 1450 Microbeta scintillation counter (Perkin Elmer).

C5a1-C5a2 heteromer = target: T2, C5a1-C5a2 heteromer (Homo sapiens, UniProt P21730+Q9P296); conditions: high concentrations of C5a, previously shown; cited from earlier work
T2 construct: expressed in transfected cells; host or cells: HEK293 (transient)

LPS stimulated HMDM [3] = conditions: literature reference 33; cited from earlier work
C5a2 = C5a2 (Homo sapiens, UniProt Q9P296); assay: BRET C5a2-β-arrestin 2 recruitment assay in HEK293 cells; format: cell-based; design: expressed in transfected cells; host or cells: HEK293 (transient)
Procedure: Assays were performed as a ligand-induced BRET experiment similar to previously described^17, 31, 49. In brief, HEK293 cells were transiently transfected with either C5a1-Rluc8 and β-arrestin 2-Venus or C5a2-Venus and β-arrestin 2-Rluc8 or C5a1-Rluc8 and C5a2-Venus in a 100-mm dish. 24 h after transfection cells were collected and transferred to a 96-well white microplate (Corning, N.Y., USA) in phenol-red free DMEM containing 5% FBS and 25 mM HEPES (Life Technologies). Cells were allowed to settle for 24 h and then were incubated with 30 μM Enduren (Promega, Madison, Wis., USA) for 2 h at 37° C. and 5% CO2 to ensure that the substrate had reached equilibrium. Following incubation BRET baseline measurements were taken for 15 min then ligands were added to plate and BRET measurements were taken for a further 1 h at 37° C. using a POLARstar optima microplate reader (BMG Labtech, Ortenberg, Germany). Filtered light emissions were sequentially measured for 1 s in each of the following windows 460-490 nm and 520-550 nm, both before and following ligand addition. The ligand-induced BRET ratio was calculated by subtracting the ratio of 520-550 nm emission over the 460-490 nm emission for a vehicle-treated sample from a ligand-treated sample of the same aliquot of cells in triplicate. The BRET ratio was calculated by subtracting the ratio of 520-550 nm emission over the 460-490 nm emission for a cell sample containing the C5a1-Rluc8 or β-arrestin 2-Rluc8 construct from a cell sample containing both the C5a1-Rluc8 and β-arrestin 2-Venus or C5a2-Venus and β-arrestin 2-Rluc8 or C5a1-Rluc8 and C5a2-Venus constructs. Peptides were also tested for ligand-induced β-arrestin 2 recruitment at 100 μM using DiscoveRx PathHunter kits for human C5a1 and C5a2 (DiscoveRx Corporation. Birmingham, UK), according to the manufacturer's instructions.

LPS stimulated HMDM [4] = assay: Cytokine release from LPS stimulated HMDM (ELISA); format: cell-based, human; conditions: C5a1 antagonist PMX53 10 μM pre-incubated 30 min
Procedure: FIG. 4 is a panel of graphs showing the testing P32 and P59 for effects on cytokine release from LPS stimulated HMDM. Measurement of human inflammatory cytokines IL-6 (4A, 4B), TNFα (4C, 4D) and IL-10 (4E, 4F) release from HMDM, 24 h after co-stimulation with LPS (10 ngml^−1) and C5a (0.1-100 nM), P32 or P59 (0.1-100 μM) with or without C5a1 antagonist PMX53 (10 μM) present. Cytokine release was quantified by ELISA. Data is representative of five independent HMDM donors performed in triplicate (n=5). CTRL represents non-stimulated HMDM. Data is normalised to LPS response (100%) for each donor. Error bars represent SEM. *P<0.05, ** P<0.01, *** P<0.001, **** P<0.0001 by one-way ANOVA followed by Dunnett's post hoc test or Sidak's post hoc test for comparisons+/−PMX53.
Briefly, HMDMs were seeded in 96 well tissue culture plates (Nunc) at 100 000 cells/well and allowed to adhere overnight at 37° C. and 5% CO2. The next day HMDMs were stimulated with E. coli derived LPS (10 ng ml^−1) only or LPS (10 ng ml^−1) and either C5a or C5a2 ligands at various concentrations (1-100 nM (C5a) or 0.1-100 μM (C5a2 ligands)). For testing cytokine release in the presence of C5a1 antagonist (PMX53), cells were pre-incubated with PMX53 at 10 μM for 30 min prior to addition of C5a or C5a2 ligands. Following ligand addition HMDMs were returned to 37° C. and 5% CO2 incubator and 24 h after stimulation supernatant was removed from cells and transferred to 96 well polypropylene microplate (Nunc) and stored at −20° C. till needed for assay. Quantification of cytokine release was performed using ELISA kits (BD OptEIA™) as per manufacturers' instructions (BD Biosciences, San Jose, Calif., USA).

T1 sequence (Q9P296 whole entry): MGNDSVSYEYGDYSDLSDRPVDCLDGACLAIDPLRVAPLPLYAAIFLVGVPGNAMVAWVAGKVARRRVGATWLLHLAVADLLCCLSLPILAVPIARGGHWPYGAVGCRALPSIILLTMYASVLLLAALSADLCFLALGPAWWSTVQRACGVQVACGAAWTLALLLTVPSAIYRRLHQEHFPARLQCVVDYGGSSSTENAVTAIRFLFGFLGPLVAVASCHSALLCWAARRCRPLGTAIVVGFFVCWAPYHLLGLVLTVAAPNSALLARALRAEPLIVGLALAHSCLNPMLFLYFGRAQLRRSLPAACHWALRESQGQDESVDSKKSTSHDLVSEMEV
Chain of C5a2 (Q9P296 whole entry): as above
Chain of C5a2 (P32121 whole entry partner): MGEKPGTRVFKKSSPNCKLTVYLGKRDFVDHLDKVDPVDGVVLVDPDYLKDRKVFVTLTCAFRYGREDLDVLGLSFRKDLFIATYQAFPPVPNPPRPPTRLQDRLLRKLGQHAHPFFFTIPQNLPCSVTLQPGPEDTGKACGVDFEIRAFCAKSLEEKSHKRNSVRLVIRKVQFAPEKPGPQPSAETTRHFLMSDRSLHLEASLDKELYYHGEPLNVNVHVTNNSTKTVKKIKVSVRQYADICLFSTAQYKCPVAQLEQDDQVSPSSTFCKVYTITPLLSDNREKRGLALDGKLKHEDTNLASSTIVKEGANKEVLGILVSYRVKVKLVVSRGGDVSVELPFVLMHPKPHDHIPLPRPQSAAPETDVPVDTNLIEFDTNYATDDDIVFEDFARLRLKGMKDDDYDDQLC
T2 sequence (P21730 whole entry): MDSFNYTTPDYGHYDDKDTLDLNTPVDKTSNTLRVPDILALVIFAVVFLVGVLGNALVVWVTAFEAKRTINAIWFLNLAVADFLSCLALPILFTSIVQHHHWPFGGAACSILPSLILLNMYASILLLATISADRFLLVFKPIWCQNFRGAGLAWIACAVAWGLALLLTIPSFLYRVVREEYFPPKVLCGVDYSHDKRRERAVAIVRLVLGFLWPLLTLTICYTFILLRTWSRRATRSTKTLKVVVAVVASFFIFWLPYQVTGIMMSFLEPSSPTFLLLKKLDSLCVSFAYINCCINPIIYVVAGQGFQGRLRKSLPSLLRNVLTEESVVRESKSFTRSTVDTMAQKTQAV
T2 sequence (Q9P296 whole entry): as the sequence (Q9P296 whole entry) above

Cmax [1]: ~50 µM
Molecule: Ac-RHYPYWR-OH [Peptide P32, Ac-RHYPYWR-OH]

displacement of 125I-C5a from Flp-In CHO-C5a2 membrane preparations [2]: do not bind
Molecule: C3a: human isolated complement protein purchased from Merck Biosciences [Peptide C3a]

Continued, molecule first:

Molecule: C3a-des Arg: human isolated C3a-des Arg/acylation-stimulating protein (ASP), purchased from Merck Biosciences
displacement of 125I-C5a from Flp-In CHO-C5a2 membrane preparations [2]: do not bind

B1: C5a: complement activation peptide; human recombinant C5a purchased from Sino Biologicals (protein)
chain: TLQKKIEEIAAKYKHSVVKKCCYDGACVNNDETCEQRAARISLGPRCIKAFTECCVVASQLRANISHKDMQLGR
up-regulation of heteromer formation between C5a1-C5a2 (C5a1-C5a2 heteromer): can up-regulate heteromer formation
IL-6 release from LPS stimulated HMDMs (LPS stimulated HMDM [3]): dose-dependently inhibits
IL-10 release from LPS stimulated HMDMs (LPS stimulated HMDM [3]): increasing the release
TNFα release from LPS stimulated HMDMs (LPS stimulated HMDM [3]): dose-dependently inhibits
C5a2-β-arrestin 2 BRET Recruitment (% of C5a) (C5a2): 100 % of C5a
EC50 (C5a2; calculated at ~40 min after ligand addition): 50.3 ± 4.2 nM
IL-6 release from LPS stimulated HMDM in the presence of PMX53 (LPS stimulated HMDM [4]): completely blocked
IL-10 release from LPS stimulated HMDM in the presence of PMX53 (LPS stimulated HMDM [4]): completely blocked
TNFα release from LPS stimulated HMDM in the presence of PMX53 (LPS stimulated HMDM [4]): completely blocked
displacement of 125I-C5a from Flp-In CHO-C5a2 membrane preparations [2]: full inhibition

B2: C5a-des Arg: human isolated complement protein purchased from Merck Biosciences (protein)
chain: TLQKKIEEIAAKYKHSVVKKCCYDGACVNNDETCEQRAARISLGPRCIKAFTECCVVASQLRANISHKDMQLG
displacement of 125I-C5a from Flp-In CHO-C5a2 membrane preparations [2]: full inhibition
